Results published in paper PMC7020344, “The eEF2 kinase-induced STAT3 inactivation inhibits lung cancer cell proliferation by phosphorylation of PKM2” (Cell Communication and Signaling : CCS, 2020).
Values joined by “and” are separate entries in the source; they are usually repeats but may differ in a detail not shown here. Identical values can stand only once.

Target: the molecule itself
Assay: cross-linking; A549 cells washed with PBS pH 8.0 and treated with BS3 for 1 h at room temperature before lysis in loading buffer; dimers and tetramers by immunoblot; cells with eEF2K depletion, overexpression or A484954

B1: FLAG-PKM2 T129A (enzyme)
chain: not shown
notes: human PKM2 from the vector pWZL-FLAG-PKM2 (Addgene #20585) with the point mutation T129A made by PCR mutagenesis; source: A549 cells expressing it, in cells (cross-linked with BS3 before lysis)
Question: For B1, which “stoichiometry N” value is on record?
Answer: 4 and 2
